Laboratory results as given in publication PMC8140153, “Fluorescence Fluctuation Spectroscopy enables quantification of potassium channel subunit dynamics and stoichiometry” (Scientific Reports, 2021).

What was measured:
[1] = molecular target: T1, KCNQ1-mCherry (human KCNQ1, C-terminally mCherry-tagged) (human, UniProt P51787 1-676); assay: Number and Brightness (N&B) analysis of TIRF image sequences; living CHO cells co-transfected with KCNE2-mEGFP and KCNQ1-mCherry; cells with fast micro-diffusion, E2f(Q1) (Dmicro > 0.02 µm^2 s^-1); 37 °C, 5% CO2; GAP-mEGFP as monomeric reference; conditions: partners not purified
T1 construct: KCNQ1 (Kv7.1) alpha subunit, human; cDNA in a CMV-based expression construct; also called Q1 in E2(Q1); source: CHO cells, co-transfected (Lipofectamine 3000), in living cells; not shown: mCherry, C-terminal, kept
T1 sequence (looked up): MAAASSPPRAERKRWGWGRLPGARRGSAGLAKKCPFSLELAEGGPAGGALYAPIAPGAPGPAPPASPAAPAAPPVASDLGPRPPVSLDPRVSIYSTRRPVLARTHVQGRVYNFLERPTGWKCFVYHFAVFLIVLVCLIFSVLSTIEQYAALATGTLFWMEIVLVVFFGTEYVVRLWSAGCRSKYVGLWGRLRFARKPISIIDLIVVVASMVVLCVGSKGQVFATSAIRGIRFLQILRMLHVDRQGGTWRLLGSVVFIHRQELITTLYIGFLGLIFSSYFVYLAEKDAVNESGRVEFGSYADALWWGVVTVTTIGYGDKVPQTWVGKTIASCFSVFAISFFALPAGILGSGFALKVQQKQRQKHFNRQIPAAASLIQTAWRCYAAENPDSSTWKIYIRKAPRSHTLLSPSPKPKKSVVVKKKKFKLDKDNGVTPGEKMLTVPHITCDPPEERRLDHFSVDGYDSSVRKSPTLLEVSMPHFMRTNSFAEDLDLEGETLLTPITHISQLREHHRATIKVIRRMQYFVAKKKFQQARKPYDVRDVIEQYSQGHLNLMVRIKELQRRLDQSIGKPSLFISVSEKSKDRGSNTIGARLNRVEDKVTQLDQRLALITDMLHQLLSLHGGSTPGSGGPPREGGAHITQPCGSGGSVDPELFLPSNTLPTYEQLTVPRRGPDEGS

[2] = molecular target: the molecule itself; assay: Number and Brightness (N&B) analysis of TIRF image sequences; living CHO cells transfected with one mEGFP-tagged subunit alone; plasma membrane, 37 °C, 5% CO2; GAP-mEGFP as monomeric reference; oligomerization state corrected for protein maturation and misfolding

B1: KCNE2-mEGFP (human KCNE2, C-terminally mEGFP-tagged) (natural protein, UniProt Q9Y6J6 1-123, looked up)
chain: MSTLSNFTQTLEDVFRRIFITYMDNWRQNTTAEQEALQAKVDAENFYYVILYLMVMIGMFSFIIVAILVSTVKSKRREHSNDPYHQYIVEDWQEKYKSQILNLEESKATIHENIGAAGFKMSP
notes: KCNE2, human, single transmembrane segment beta subunit; cDNA in a CMV-based expression construct; also called KCNE2 subunit; E2(Q1), E2f(Q1), E2s(Q1) when co-expressed with KCNQ1-mCherry; source: CHO cells, transfected (Lipofectamine 3000), in living cells; not shown: mEGFP, C-terminal, kept
stoichiometry N [1]: 4 E2 subunits per KCNQ1-KCNE2 complex
stoichiometry N [2]: 2
